From US20240059785A1

Experiments:
[1] = target: human CD37 (Homo sapiens CD37) (Homo sapiens) (UniProt P11049); test: cell-based or functional assay
[2] = target: human CD20 (Homo sapiens CD20) (Homo sapiens) (UniProt P11836); test: cell-based or functional assay
Chain of human CD20 (Homo sapiens CD20) (Homo sapiens) (P11836 whole entry): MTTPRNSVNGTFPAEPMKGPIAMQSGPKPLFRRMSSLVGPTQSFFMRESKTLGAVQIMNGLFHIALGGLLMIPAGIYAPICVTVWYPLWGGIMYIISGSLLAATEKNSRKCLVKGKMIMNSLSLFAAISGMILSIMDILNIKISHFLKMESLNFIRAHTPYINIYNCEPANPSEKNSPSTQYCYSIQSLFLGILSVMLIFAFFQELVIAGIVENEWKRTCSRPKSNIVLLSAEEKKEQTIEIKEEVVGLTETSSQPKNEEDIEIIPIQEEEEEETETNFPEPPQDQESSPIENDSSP

Chain of human CD37 (Homo sapiens CD37) (Homo sapiens) (P11049 whole entry): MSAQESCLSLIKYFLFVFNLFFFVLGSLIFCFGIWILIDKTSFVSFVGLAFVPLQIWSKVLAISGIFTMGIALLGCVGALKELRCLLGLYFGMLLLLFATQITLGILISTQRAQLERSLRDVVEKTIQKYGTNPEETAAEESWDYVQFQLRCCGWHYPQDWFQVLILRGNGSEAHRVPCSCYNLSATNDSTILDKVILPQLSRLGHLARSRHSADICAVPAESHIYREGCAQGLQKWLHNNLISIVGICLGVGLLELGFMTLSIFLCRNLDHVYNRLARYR

Row | Substance | ADCC reporter assay (FcγRIII-transfected Jurkat NFAT luciferase effector cells), Mean RLU, CD37/CHO target cells, Effector:Target 4:1 [1] | ADCC reporter assay (FcγRIII-transfected Jurkat NFAT luciferase effector cells), Mean RLU, CD37/CHO target cells, Effector:Target 8:1 [1] | ADCC reporter assay (FcγRIII-transfected Jurkat NFAT luciferase effector cells), Mean RLU, CD20/CHO target cells, Effector:Target 4:1 [2] | ADCC reporter assay (FcγRIII-transfected Jurkat NFAT luciferase effector cells), Mean RLU, CD20/CHO target cells, Effector:Target 8:1 [2] | ADCC reporter assay (FcγRIII-transfected Jurkat NFAT luciferase effector cells), Mean RLU, Raji target cells (express both hCD20 and hCD37), Effector:Target 4:1 [2] | ADCC reporter assay (FcγRIII-transfected Jurkat NFAT luciferase effector cells), Mean RLU, Raji target cells (express both hCD20 and hCD37), Effector:Target 8:1 [2]
1 | human IgG1 isotype control antibody (an anti-dinitrophenyl (anti-DNP) antibody) | 20600 RLU | 36200 RLU | 20900 RLU | 36000 RLU | 16600 RLU | 31500 RLU
2 | rituximab (antibody) | 20500 RLU | 35900 RLU | – | – | – | –
